# Laboratory results taken from patent US10080774B2, “Oncolytic adenovirus armed with therapeutic genes” (priority 2002, dated 2018).
# Where no end group is shown, it is not given here. FAM = 5(6)-carboxyfluorescein label; Ahx = NCCCCCC(=O)O
# Legend:
# Tie2 [1] = target: T1, Tie2 (Homo sapiens, UniProt Q02763); assay: Binding of T4 peptide to Tie2; parameters: expressed in transfected cells; host or cells: U-251 MG stably transfected with Tie-2 cDNA (parental U-251 MG is Tie2-negative); also A172 cells with endogenous Tie2; details: U-251 MG isogenic system and A172
# T1 sequence (Q02763 23-1124): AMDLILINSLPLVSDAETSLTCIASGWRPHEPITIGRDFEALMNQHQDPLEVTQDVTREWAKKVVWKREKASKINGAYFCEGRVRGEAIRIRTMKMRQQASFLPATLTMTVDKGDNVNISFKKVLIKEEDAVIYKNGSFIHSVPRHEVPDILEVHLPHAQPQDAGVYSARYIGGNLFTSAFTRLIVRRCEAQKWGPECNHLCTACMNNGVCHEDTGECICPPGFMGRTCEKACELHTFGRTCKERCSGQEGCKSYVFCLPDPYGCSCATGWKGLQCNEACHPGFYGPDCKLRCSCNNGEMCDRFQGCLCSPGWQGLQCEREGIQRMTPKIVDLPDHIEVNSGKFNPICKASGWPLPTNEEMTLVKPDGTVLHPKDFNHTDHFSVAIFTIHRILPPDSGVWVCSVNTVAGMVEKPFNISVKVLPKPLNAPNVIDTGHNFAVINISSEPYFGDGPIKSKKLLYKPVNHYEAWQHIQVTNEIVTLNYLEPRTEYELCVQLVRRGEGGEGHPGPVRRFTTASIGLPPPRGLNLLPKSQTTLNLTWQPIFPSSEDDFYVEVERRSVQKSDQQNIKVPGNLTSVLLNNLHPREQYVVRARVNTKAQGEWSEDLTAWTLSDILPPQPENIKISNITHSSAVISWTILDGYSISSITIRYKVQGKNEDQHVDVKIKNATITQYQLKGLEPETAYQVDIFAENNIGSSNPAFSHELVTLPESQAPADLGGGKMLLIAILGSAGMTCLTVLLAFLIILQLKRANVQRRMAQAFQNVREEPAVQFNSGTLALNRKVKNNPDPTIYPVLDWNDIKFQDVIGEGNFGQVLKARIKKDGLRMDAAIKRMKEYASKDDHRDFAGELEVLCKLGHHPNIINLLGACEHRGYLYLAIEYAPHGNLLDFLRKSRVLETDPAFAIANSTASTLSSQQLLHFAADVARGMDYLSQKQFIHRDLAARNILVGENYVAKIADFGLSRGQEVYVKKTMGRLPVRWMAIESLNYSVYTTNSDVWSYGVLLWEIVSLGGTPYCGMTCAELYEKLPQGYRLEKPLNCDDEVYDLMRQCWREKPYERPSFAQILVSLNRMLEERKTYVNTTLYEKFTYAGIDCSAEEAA
# Excerpt: Testing the binding of the proposed Tie2-ligand, T4, the inventors synthesized the peptide linked to FAM signal that was suitable for flow cytometric detection. Peptide was synthesized by automatic solid phase chemistry using Fmoc strategy. The N-terminal aminohexanoic acid was labeled by coupling 5(6)-carboxyfluorescein. Peptides were purified to >98% purity by reverse phase HPLC.
# Tie2 [2] = target: T1, Tie2; parameters: expressed in transfected cells; host or cells: U-251 MG stably transfected with Tie-2 cDNA (parental U-251 MG is Tie2-negative); also A172 cells with endogenous Tie2; details: Tournaire et al. (2004); cited from earlier work
# P-MAPK = P-MAPK inhibition; assay type: cell-based, human; details: U-87 MG cells
# Excerpt: Although the correlation between MAPK activity and Ad-E1A-COX ability to replicate has been shown (Ahmed et al., 2003), the inventors have designed studies to assess the ability of retargeted constructs to replicate in glioma cells with high or low MAPK activity. To characterize the effects of the insertion of the 3′ UTR on E1A expression, inhibitors of kinases signaling, PD98059 (p42/p44 MAPK inhibitor), and for specificity testing: SB203580 (p38 MAPK inhibitor) and LY294002 (PI3K inhibitor) will be used. The inventors will use an isogenic U-87 MG system, containing a stably integrated, IPTG-inducible activated Ha-rasVal12 cDNA (Sheng et al., 2000). This model system is based in cells that only differ in the expression of an activated variant of the Hras oncogene, Ha-rasVal12 (Sheng et al., 2000). The will assess whether PTGS2 3′ UTR-mediated Ad-E1A-COX-Tie2 depends on the P-MAPK pathway. […] The replication capability of Ad-E1A-COX-Tie2 in U87-MG cells untreated and treated with PD98059 (and the control inhibitors) will be assessed. The inventors contemplate that inhibition of P-MAPK activity by PD98059 will greatly reduce the ability Ad-E1A-COX-Tie2 to replicate even with high expression of Ha-rasVal12 induced by IPTG in the isogenic U-87 MG. […]
# [3] = test system: ERK1 (p44MAPK) and ERK2 (p42MAPK); assay: ERK1/2 (p42/p44 MAPK) phosphorylation, Western blot; assay type: cell-based, human
# Procedure: HUVEC and U-87 MG cells were mock-, AdCMV- or AdAng-2-Infected. 24 hours later they were overnights serum-starved, and then stimulated with […] for 10 min. Cell lysates were collected and analyzed by Western blotting for expression of phospho- and total p42/p44 MAPK. Ang-1 increased ERK 1/2 phosphorylation what was inhibited by the viral-transduced Ang-2.
# The Ang-2/Ang-1/Tie2 system has been studied in endothelial cells, and different pathways have been reported as involved in the cascade signaling; these include phosphotidylinositol […] (PI3-K), focal adhesion kinase, Raf/Ras/mitogen-activated protein kinase (MAPK), and Dok-R/Dok-2/Nck/Pak (Yoon et al., 2003). […] These cascades modulate protein synthesis and/or transcriptional activation. […] To measure MAPK activity, the inventors measured the degree of phosphorylation of two MAPKs, ERK1 (p44MAPK) and ERK2 (p42MAPK).
# The Ang-2/Ang1/Tie2 system has been studied in endothelial cells, and different pathways have been reported as involved in the cascade signaling. […] MAPK activity was measured by the degree of phosphorylation of two MAPKs, ERK1 (p44^MAPK) and ERK2 (p42^MAPK).
# Tie2 [4] = target: T1, Tie2; assay: Tie2 phosphorylation, immunoprecipitation; assay type: cell-based; details: U-87 MG, 500 ng/ml, 10 min
# Procedure: To explore the regulation of Tie2 signaling by Angs in U-87 MG cells, Tie2 was immunoprecipitated from membrane fractions of U-87 MG cells treated with rAng1 (500 ng/ml) for 10 min, and phosphorylation of Tie2 was addressed using anti-phosphotyrosine antibody.
# U-87 MG cells [5] = assay: Glioma cell adhesion assay; assay type: cell-based, human; details: 1 hr
# Excerpt: It was reported that Ang1 promotes adhesion of Tie2+ hematopoietic stem cells to fibronectin and collagen and also promotes the interaction of endothelial cells with surrounding mesenchymal cells and the extracellular matrix (Davis et al., 1996; Suri et al., 1996; Arai et al., 2004). Therefore, the inventors analyzed the effects of Ang1/Tie2 signalling on glioma adhesion. Briefly, 96-well dishes were coated for 2 hr at room temperature (RT) with rAng1 diluted in PBS. Wells were then blocked for 30 min at RT with 0.5% heat-inactivated BSA in PBS (80° C. for 10 min) and washed three times with PBS before adding cells. U-87 MG cells were harvested and resuspended. 30,000 cells were seeded/well, and the plate was incubated at 37° C. for 1 hr. Nonadherent cells were removed and attached cells were fixed in 4% paraformaldehyde and stained with 0.2% crystal violet. Cells were solubilized in DMSO and absorbance of each well was read at 570 nm. […] Similar results were obtained when Tie2− and Tie2+U-251 MG were used. In addition, the possibility of Ang1-induced adhesion has been assessed. For that study, the wells were coated with several ECM and then, U-87 MG cells that were previously stimulated with Ang1 (BSA control), were plated on those wells. […]
# U-87 MG cells [6] = assay: Chemotactic migration assay (Transwell); assay type: cell-based, human; details: 24 h
# Procedure: Witzenbichler et al. (1998) have reported the chemotactic properties of Ang1 for Tie2-endothelial cells. A chemotaxis assay was performed in the presence or absence of Ang1. Incubation with various concentrations of Ang1 enhanced chemotactic migration of U-87 MG cells. Migration assay was performed as described previously (Gomez-Manzano, 2003). Briefly, the lower surface of the filter was coated with gelatin. 600 μl of DMEM/F-12 (1:1) containing rAng1 and 0.1% BSA was added into lower compartment of the Transwell chamber, and 100 μl of cell suspension was added in the upper chamber. After 24 h of incubation, the filters were fixed, stained with H/E, and the cells on the lower surface of the filters were counted at 400× with Zeiss microscope. Assays were performed in triplicate. […] To distinguish between chemotactic and chemokinetics effect of Ang1 on U-87 MG, an analysis was performed where similar doses of Ang1 were present above and below the filter. Significant migration was observed only when a concentration gradient of Ang1 was established, a finding typical of factors inducing chemotaxis.
# Dok-R = assay: Tie2 association with Dok-R; assay type: cell-based, human; details: stable transfected Tie2 U-251 MG
# Excerpt: Tie2 can also recruit additional signaling molecules that participate in cellular pathways that affect the shape and migratory properties of cells. In this regard, the Tie2-associated docking protein Dok-R can potentiate NCK-dependent endothelial cell migration in response to Ang1 (Master et al., 2001; Jones et al., 2003).
# Akt = Akt phosphorylation; assay type: cell-based, human; details: U-87 MG, 100-500 ng/ml
# Excerpt: Consistant with previous reports, Ang-1/Tie signaling in endothelial cells in vitro involves PI3K/Akt activation (DeBusk et al., 2004; Papapetropoulos et al., 2000).
# Ras = Ras activity (Ras-GTP); assay type: cell-based, human; details: U-87 MG
# Procedure: In addition, the inventors have obtained data regarding the upstream effector of p42/p44 MAPK, Ras, by analyzing Ras activity in Ang1-estimulated U-87 MG cells. Ras activity, which detects active GTP-bound Ras, was performed by immunoprecipitation of Ras-Raf complexes (contains only active Ras), and consequent western blotting detection of Ras-GTP molecule.
molecule,measurement,setting,value
NLLMAAS ({FAM-Ahx}-NLLMAAS; also: 5(6)-carboxyfluorescein label (site not given here)) [T4],binding to cell membrane by flow cytometry,Tie2 [1],binds preferentially to the membrane of cells overexpressing Tie2
same,binding of Ang1 and Ang-2 to the Tie2 receptor,Tie2 [2],completely abolished
COc1cccc(-c2cc(=O)c3ccccc3o2)c1N [PD98059],P-MAPK expression,P-MAPK,effectively inhibited P-MAPK expression
rhAng-1: recombinant angiopoietin-1 protein (protein) SNQRRSPENSGRRYNRIQHGQCAYTFILPEHDGNCRESTTDQYNTNALQRDAPHVEPDFSSQKLQHLEHVMENYTQWLQKLENYIVENMKSEMAQIQQNAVQNHTATMLEIGTSLLSQTAEQTRKLTDVETQVLNQTSRLEIQLLENSLSTYKLEKQLLQQTNEILKIHEKNSLLEHKILEMEGKHKEELDTLKEEKENLQGLVTRQTYIIQELEKQLNRATTNNSVLQKQQLELMDTVHNLVNLCTKEGVLLKGGKREEEKPFRDCADVYQAGFNKSGIYTIYINNMPEPKKVFCNMDVNGGGWTVIQHREDGSLDFQRGWKEYKMGFGNPSGEYWLGNEFIFAITSQRQYMLRIELMDWEGNRAYSQYDRFHIGNEKQNYRLYLKGHTGTAGKQSSLILHGADFSTKDADNDNCMCKCALMLTGGWWFDACGPSNLNGMFYTAGQNHGKLNGIKWHYFKGPSYSLRSTTMMIRPLDF,ERK1/2 phosphorylation,"[3]; HU-VEC-C endothelial cells, 100 ng/ml",increased ERK1/2 phosphorylation
same,ERK1/2 phosphorylation,[3]; U-87 MG,increased ERK1/2 phosphorylation
same,Tie2 phosphorylation,Tie2 [4],induced phosphorylation of Tie2
same,adhesion of U-87 cells to Ang1-coated wells,U-87 MG cells [5],increasing adhesion properties
same,chemotactic migration,U-87 MG cells [6],significant increase in directed migration
same,Tie2 association with Dok-R,Dok-R,results in Tie2 association with Dok-R protein
same,Akt phosphorylation,Akt,did not modify the pattern of phosphorylation of the Akt molecule
same,Ras activity,Ras,Ras activity increases
